This is an account of results in article PMC12612047 (Nature Communications, 2025).

The test system of the test is CNA/B. Description: Affinity of CLMB T44E for CNA/B. It counts as binding. The following applies: glutamate for threonine at position 44; data not shown.

B1: CLMB^T44E (protein)
chain: MGLKMSCLKGFQMCVSSSSSSHDEAPVLNDKHLDVPDIIITPPEPTGMMLPRDLGSTVWLDETGSCPDDGEIDPEA
Regarding B1, the “affinity for CNA/B relative to CLMB” value is given as “failed to show increased affinity”.
